The text below walks through data of PMC2651776 (Nucleic Acids Research, 2009).

The target in series [1] is T1, MepR (Staphylococcus aureus, UniProt Q5Y812).
T1 sequence (Q5Y812 1-139): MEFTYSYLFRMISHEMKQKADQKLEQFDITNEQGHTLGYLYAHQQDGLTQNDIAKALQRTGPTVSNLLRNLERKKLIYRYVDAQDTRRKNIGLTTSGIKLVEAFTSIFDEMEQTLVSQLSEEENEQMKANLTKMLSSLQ
The format is binding.

The target in series [2] is MepR (Staphylococcus aureus, UniProt A0A0H3JPT9 1-139). Briefly: fluorescence polarization.
The series “SEC” concerns the molecule itself. Nature of the series: SEC.

As for `N=C(N)c1ccc(-c2cc3ccc(C(=N)N)cc3[nH]2)cc1` [DAPI, 4′,6-diamidino-2-phenylindole], the affinity at MepR [1], expressed as Kd, was 4.5 µM.

In turn, `CC[n+]1c(-c2ccccc2)c2cc(N)ccc2c2ccc(N)cc21` [ethidium] registered a Kd on MepR [1] of 2.6 µM.

Take `CC/N=c1\cc2oc3cc(NCC)c(C)cc3c(-c3ccccc3C(=O)OCC)c-2cc1C` [rhodamine 6G]: the Kd on MepR [1] was 62.6 µM.

B1: mepR 26 bp site (dsDNA)
DNA 1: TATTTAGTTAGACATCTAACGAATGG
DNA 2: CCATTCGTTAGATGTCTAACTAAATA
In turn, B1 came in with a Kd with MepR [2] of 0.0243 µM.

B2: MepR (natural protein, Staphylococcus aureus)
chain: MEFTYSYLFRMISHEMKQKADQKLEQFDITNEQGHTLGYLYAHQQDGLTQNDIAKALQRTGPTVSNLLRNLERKKLIYRYVDAQDTRRKNIGLTTSGIKLVEAFTSIFDEMEQTLVSQLSEEENEQMKANLTKMLSSLQ
With B2, the “stoichiometry N” value in the series “SEC” is 2.

B3: mepA 26 bp (3'-truncated) (dsDNA)
DNA 1: TTATAGTTAGATATCTAATTGTTAGT
DNA 2: ACTAACAATTAGATATCTAACTATAA
In the case of B3, the Kd with MepR [2] stood at 0.0153 µM.

B4: mepA 44 bp full site (dsDNA)
DNA 1: TTATAGTTAGATATCTAATTGTTAGTAAGCTAATTATTGGAAAA
DNA 2: TTTTCCAATAATTAGCTTACTAACAATTAGATATCTAACTATAA
Turning to B4, in the series with MepR [2], the Kd was 0.0063 µM.

B5: mepA 22 bp (3'-truncated) (dsDNA)
DNA 1: TTATAGTTAGATATCTAATTGT
DNA 2: ACAATTAGATATCTAACTATAA
The molecule B5 showed a Kd with MepR [2] of 0.0464 µM.
